Measured values published in the supplement of paper PMC11246515.
± gives the standard deviation of the averaged measurements.

Assay: total protein half-life in vivo (active degradation + dilution); higher = more stable protein
[1] = wild type E. coli NCM3722, growth: C-lim chemostat, doubling time 12 h
[2] = E. coli NCM3722 delta-clpP delta-lon delta-hslV, growth: N-lim chemostat, doubling time 6 h
[3] = E. coli NCM3722 delta-clpP, growth: N-lim chemostat, doubling time 6 h
[4] = E. coli NCM3722 delta-hslV, growth: N-lim chemostat, doubling time 6 h
[5] = E. coli NCM3722 delta-lon, growth: N-lim chemostat, doubling time 6 h
[6] = E. coli NCM3722 delta-smpB, growth: N-lim chemostat, doubling time 6 h
[7] = wild type E. coli NCM3722, growth: C-lim chemostat, doubling time 3 h
[8] = wild type E. coli NCM3722, growth: C-lim chemostat, doubling time 6 h
[9] = wild type E. coli NCM3722, growth: N-lim chemostat, doubling time 6 h
[10] = wild type E. coli NCM3722, growth: N-lim chemostat, doubling time 12 h
[11] = wild type E. coli NCM3722, growth: P-lim chemostat, doubling time 6 h
[12] = wild type E. coli NCM3722, growth: P-lim chemostat, doubling time 12 h

Row | Sequence | total protein half-life in vivo [1] [h] | total protein half-life in vivo [2] [h] | total protein half-life in vivo [3] [h] | total protein half-life in vivo [4] [h] | total protein half-life in vivo [5] [h] | total protein half-life in vivo [6] [h] | total protein half-life in vivo [7] [h] | total protein half-life in vivo [8] [h] | total protein half-life in vivo [9] [h] | total protein half-life in vivo [10] [h] | total protein half-life in vivo [11] [h] | total protein half-life in vivo [12] [h]
1 | MKTYQGTHGVHILEYQSKINKLLCYLTNRYPRLIAVRVDLHYPKIVDNGDNICCFPNLEPGVISRMRESLRAKLEADRTRKVREDKRIYRCPLFIIWAKEYSESGKCHYHICLLFNKDAYYHLGDYDQDDNLRGMITGAWYSALRLERDDHPGLVHFPENCKYVLDTNSTDFQQNYQALLTRLDYLTKVESKVFGEGDRNFGCSQIEL | > 16 |  |  |  |  |  |  |  |  |  |  | 
2 | MKVAKDLVVSLAYQVRTEDGVLVDESPVSAPLDYLHGHGSLISGLETALEGHEVGDKFDVAVGANDAYGQYDENLVQRVPKDVFMGVDELQVGMRFLAETDQGPVPVEITAVEDDHVVVDGNHMLAGQNLKFNVEVVAIREATEEELAHGHVHGAHDHHHDHDHDGCCGGHGHDHGHEHGGEGCCGGKGNGGCGCH [P0A9K9] | 8.14 ± 0.37 | 4.87 ± 0.55 | 4.07 ± 0.042 | 3.46 ± 0.26 | 4.18 ± 0.1 | 3.3811 ± 0.00031 | 2.88 ± 0.18 | 4.63 ± 0.15 | 3.47 ± 0.24 | 5.28 ± 0.73 | 4.54 ± 0.53 | 8.69 ± 0.066
3 | MKVLTVFGTRPEAIKMAPLVHALAKDPFFEAKVCVTAQHREMLDQVLKLFSIVPDYDLNIMQPGQGLTEITCRILEGLKPILAEFKPDVVLVHGDTTTTLATSLAAFYQRIPVGHVEAGLRTGDLYSPWPEEANRTLTGHLAMYHFSPTETSRQNLLRENVADSRIFITGNTVIDALLWVRDQVMSSDKLRSELAANYPFIDPDKKMILVTGHRRESFGRGFEEICHALADIATTHQDIQIVYPVHLNPNVREPVNRILGHVKNVILIDPQEYLPFVWLMNHAWLILTDSGGIQEEAPSLGKPVLVMRDTTERPEAVTAGTVRLVGTDKQRIVEEVTRLLKDENEYQAMSRAHNPYGDGQACSRILEALKNNRISL | 10.5 ± 2.5 | 4.18 ± 0.042 | 4.52 ± 0.26 | 4.56 ± 0.14 | 4.96 ± 0.82 | 3.55 ± 0.33 | 3.23 ± 0.27 | 5.8 ± 0.64 | 4.16 ± 0.4 | 8.18 ± 0.94 | 6.17 ± 0.78 | 10.1 ± 1.9
4 | MKVLVIGNGGREHALAWKAAQSPLVETVFVAPGNAGTALEPALQNVAIGVTDIPALLDFAQNEKIDLTIVGPEAPLVKGVVDTFRAAGLKIFGPTAGAAQLEGSKAFTKDFLARHKIPTAEYQNFTEVEPALAYLREKGAPIVIKADGLAAGKGVIVAMTLEEAEAAVHDMLAGNAFGDAGHRIVIEEFLDGEEASFIVMVDGEHVLPMATSQDHKRVGDKDTGPNTGGMGAYSPAPVVTDDVHQRTMERIIWPTVKGMAAEGNTYTGFLYAGLMIDKQGNPKVIEFNCRFGDPETQPIMLRMKSDLVELCLAACESKLDEKTSEWDERASLGVVMAAGGYPGDYRTGDVIHGLPLEEVAGGKVFHAGTKLADDEQVVTNGGRVLCVTALGHTVAEAQKRAYALMTDIHWDDCFCRKDIGWRAIEREQN | 10.5 ± 0.14 | 5.13 ± 0.32 | 4.89 ± 0.38 | 4.3 ± 0.28 | 4.91 ± 0.24 | 4.44 ± 0.17 | 3.38 ± 0.24 | 6.37 ± 0.4 | 4.62 ± 0.25 | 7.03 ± 0.35 | 6.097 ± 0.048 | 12.7 ± 0.7
5 | MKVMRTTVATVVAATLSMSAFSVFAEASLTGAGATFPAPVYAKWADTYQKETGNKVNYQGIGSSGGVKQIIANTVDFGASDAPLSDEKLAQEGLFQFPTVIGGVVLAVNIPGLKSGELVLDGKTLGDIYLGKIKKWDDEAIAKLNPGLKLPSQNIAVVRRADGSGTSFVFTSYLAKVNEEWKNNVGTGSTVKWPIGLGGKGNDGIAAFVQRLPGAIGYVEYAYAKQNNLAYTKLISADGKPVSPTEENFANAAKGADWSKTFAQDLTNQKGEDAWPITSTTFILIHKDQKKPEQGTEVLKFFDWAYKTGAKQANDLDYASLPDSVVEQVRAAWKTNIKDSSGKPLY [P0AG82] | 11.7 ± 0.42 | 4.1 ± 0.22 | 5.18 ± 0.54 | 6.12 ± 0.3 | 6.31 ± 0.76 | 6.08 ± 0.12 | 3.42 ± 0.057 | 6.04 ± 0.31 | 6.11 ± 0.43 | 12.9 ± 0.66 | 5.67 ± 0.093 | 11.5 ± 0.23
6 | MKVTFEQLKAAFNRVLISRGVDSETADACAEMFARTTESGVYSHGVNRFPRFIQQLENGDIIPDAQPKRITSLGAIEQWDAQRSIGNLTAKKMMDRAIELAADHGIGLVALRNANHWMRGGSYGWQAAEKGYIGICWTNSIAVMPPWGAKECRIGTNPLIVAIPSTPITMVDMSMSMFSYGMLEVNRLAGRQLPVDGGFDDEGNLTKEPGVIEKNRRILPMGYWKGSGMSIVLDMIATLLSDGASVAEVTQDNSDEYGISQIFIAIEVDKLIDGPTRDAKLQRIMDYVTSAERADENQAIRLPGHEFTTLLAENRRNGITVDDSVWAKIQAL | 9.43 ± 1.9 |  |  |  |  |  | 2.77 ± 0.16 | 5.23 ± 0.17 |  |  |  | 
7 | MKVTLPEFERAGVMVVGDVMLDRYWYGPTSRISPEAPVPVVKVNTIEERPGGAANVAMNIASLGANARLVGLTGIDDAARALSKSLADVNVKCDFVSVPTHPTITKLRVLSRNQQLIRLDFEEGFEGVDPQPLHERINQALSSIGALVLSDYAKGALASVQQMIQLARKAGVPVLIDPKGTDFERYRGATLLTPNLSEFEAVVGKCKTEEEIVERGMKLIADYELSALLVTRSEQGMSLLQPGKAPLHMPTQAQEVYDVTGAGDTVIGVLAATLAAGNSLEEACFFANAAAGVVVGKLGTSTVSPIELENAVRGRADTGFGVMTEEELKLAVAAARKRGEKVVMTNGVFDILHAGHVSYLANARKLGDRLIVAVNSDASTKRLKGDSRPVNPLEQRMIVLGALEAVDWVVSFEEDTPQRLIAGILPDLLVKGGDYKPEEIAGSKEVWANGGEVLVLNFEDGCSTTNIIKKIQQDKKG | 11.032 ± 0.011 | 5.6 ± 0.12 | 5.98 ± 1.2 | 5.19 ± 0.094 | 5.89 ± 0.14 | 5.15 ± 0.11 | 3.1 ± 0.062 | 5.74 ± 0.21 | 5.3 ± 0.34 | 9.17 ± 0.1 | 5.82 ± 0.12 | 12.3 ± 0.15
